Measurements as given in the supplement of paper PMC7125110.
± gives the standard error. For some of these results: Fewer inactive variants are shown than the library holds.

B1: glmS ribozyme (parent)
chain: AUAAAAGCGCCAGAACUACAGAAAUGUAGUUGACGAGGAGGAGGUUUAUCGAAUUUUCGGCGGAUGCCUCCAAA

Key:
Conditions in all cases: with glucosamine-6-phosphate
glucosamine-6-phosphate [1] = variants of: B1; test: kcat; higher = faster cleavage; RNA array
Method in brief: (§1)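 Barcoded ribozyme variants, transcribed in situ by E. coli RNA polymerase on sequenced MiSeq chips, were followed via a hybridised Cy3 probe at 37 °C. Glucosamine-6-phosphate ranged from 40 μM to 10 mM in HEPES/KCl/Mg(OAc)2 buffer. kobs came from decay fits to per-tile medians, and kcat and KM from weighted Michaelis–Menten fits.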

glucosamine-6-phosphate [2] = variants of: B1; test: self-cleavage kobs at 40 uM GlcN6P; higher = faster cleavage; RNA array
Method in brief: as §1

glucosamine-6-phosphate [3] = variants of: B1; test: self-cleavage kobs at 10000 uM GlcN6P; higher = faster cleavage; RNA array
Method in brief: as §1

glucosamine-6-phosphate [4] = variants of: B1; test: self-cleavage kobs at 640 uM GlcN6P; higher = faster cleavage; RNA array
Method in brief: as §1

glucosamine-6-phosphate [5] = variants of: B1; test: KM; higher = weaker cofactor use; RNA array
Method in brief: as §1

glucosamine-6-phosphate [6] = variants of: B1; test: self-cleavage kobs at 2500 uM GlcN6P; higher = faster cleavage; RNA array
Method in brief: as §1

glucosamine-6-phosphate [7] = variants of: B1; test: self-cleavage kobs at 160 uM GlcN6P; higher = faster cleavage; RNA array
Method in brief: as §1

Row | Variant | kcat (glucosamine-6-phosphate [1]) | self-cleavage kobs at 40 uM GlcN6P (glucosamine-6-phosphate [2]) | self-cleavage kobs at 10000 uM GlcN6P (glucosamine-6-phosphate [3]) | self-cleavage kobs at 640 uM GlcN6P (glucosamine-6-phosphate [4]) | KM (glucosamine-6-phosphate [5]) | self-cleavage kobs at 2500 uM GlcN6P (glucosamine-6-phosphate [6]) | self-cleavage kobs at 160 uM GlcN6P (glucosamine-6-phosphate [7])
1 | G38A C68A | < 1e-05 s⁻¹ | < 1e-05 s⁻¹ | < 1e-05 s⁻¹ |  |  |  | 
2 | G38A C61G | 1.44e-05 ± 3.1e-06 s⁻¹ |  |  |  |  |  | 
3 | G51A A53C | < 1e-05 s⁻¹ |  |  | < 1e-05 s⁻¹ |  |  | 
4 | G35A C50G | 0.000781 ± 0.00018 s⁻¹ |  |  | 0.000273 ± 0.00012 s⁻¹ | 1190 ± 540 µM | 0.000615 ± 0.00015 s⁻¹ | 
5 | A39G G41U | 0.0014 ± 8.3e-05 s⁻¹ | 3.41e-05 ± 9.8e-06 s⁻¹ | 0.00119 ± 0.00016 s⁻¹ | 0.000467 ± 8.1e-05 s⁻¹ | 1410 ± 140 µM | 0.000965 ± 0.00021 s⁻¹ | 0.000143 ± 2.9e-05 s⁻¹
6 | A39C C68U | 0.000495 ± 6.5e-05 s⁻¹ | 2.73e-05 ± 7e-06 s⁻¹ | 0.000445 ± 4.9e-05 s⁻¹ | 0.000159 ± 1.7e-05 s⁻¹ | 1180 ± 300 µM | 0.000367 ± 5.1e-05 s⁻¹ | 6.25e-05 ± 1.3e-05 s⁻¹
7 | G35U U65A | < 1e-05 s⁻¹ | < 1e-05 s⁻¹ |  | < 1e-05 s⁻¹ |  | < 1e-05 s⁻¹ | 
8 | A39G U65G | 0.0131 ± 0.0026 s⁻¹ | 0.000177 ± 2.2e-05 s⁻¹ | 0.0103 ± 0.0015 s⁻¹ | 0.00161 ± 0.00039 s⁻¹ | 3200 ± 790 µM | 0.00553 ± 0.0018 s⁻¹ | 0.00068 ± 0.00014 s⁻¹
9 | U45G U54A | 0.00862 ± 0.0024 s⁻¹ | 0.000294 ± 6.7e-05 s⁻¹ | 0.00721 ± 0.0012 s⁻¹ | 0.00206 ± 0.00071 s⁻¹ | 2110 ± 950 µM | 0.00456 ± 0.0014 s⁻¹ | 0.000437 ± 0.00014 s⁻¹
10 | G43C C68G | 0.0157 ± 0.0024 s⁻¹ | 0.00205 ± 0.00027 s⁻¹ |  | 0.0109 ± 0.0018 s⁻¹ | 265 ± 63 µM | 0.0139 ± 0.0031 s⁻¹ | 0.00622 ± 0.0014 s⁻¹
11 | A64G G66C | 0.00291 ± 0.001 s⁻¹ | 4.68e-05 ± 1.7e-05 s⁻¹ | 0.0027 ± 0.00051 s⁻¹ | 0.00057 ± 0.00011 s⁻¹ |  | 0.00103 ± 0.00022 s⁻¹ | 
12 | U47A A52U | 0.000365 ± 3.9e-05 s⁻¹ |  | 0.000299 ± 4.3e-05 s⁻¹ | 7.72e-05 ± 1.5e-05 s⁻¹ | 2690 ± 570 µM | 0.000158 ± 3e-05 s⁻¹ | 
13 | A14C A15G G40U | 0.000605 ± 0.0002 s⁻¹ |  | 0.000428 ± 7.3e-05 s⁻¹ | 8.18e-05 ± 1.4e-05 s⁻¹ | 5380 ± 2700 µM | 0.000171 ± 2.4e-05 s⁻¹ | 
14 | A14C A53G | 0.00897 ± 0.0044 s⁻¹ | 0.00012 ± 1.8e-05 s⁻¹ | 0.00721 ± 0.001 s⁻¹ | 0.00116 ± 0.00015 s⁻¹ |  | 0.0024 ± 0.00037 s⁻¹ | 0.000245 ± 3.7e-05 s⁻¹
15 | A6C U47A | 0.0001 ± 5.6e-06 s⁻¹ |  | 6.15e-05 ± 1.4e-05 s⁻¹ |  | 6300 ± 770 µM |  | 
16 | C50U U69G C70U | 5.07e-05 ± 2.4e-05 s⁻¹ |  |  | 8.65e-05 ± 3.1e-05 s⁻¹ |  |  | 
17 | U30C | 0.000469 ± 2.4e-05 s⁻¹ |  | 0.000395 ± 6.5e-06 s⁻¹ | 0.000113 ± 2e-06 s⁻¹ | 1950 ± 180 µM | 0.000759 ± 0.00027 s⁻¹ | 4.18e-05 ± 1.9e-06 s⁻¹

Row | Variant | kcat (glucosamine-6-phosphate [1]) | self-cleavage kobs at 40 uM GlcN6P (glucosamine-6-phosphate [2]) | self-cleavage kobs at 10000 uM GlcN6P (glucosamine-6-phosphate [3]) | self-cleavage kobs at 640 uM GlcN6P (glucosamine-6-phosphate [4]) | KM (glucosamine-6-phosphate [5]) | self-cleavage kobs at 2500 uM GlcN6P (glucosamine-6-phosphate [6]) | self-cleavage kobs at 160 uM GlcN6P (glucosamine-6-phosphate [7])
18 | G7U C67U | < 1e-05 s⁻¹ | < 1e-05 s⁻¹ |  |  |  | < 1e-05 s⁻¹ | < 1e-05 s⁻¹
19 | G51C U54C | < 1e-05 s⁻¹ |  |  | < 1e-05 s⁻¹ |  | < 1e-05 s⁻¹ | 
20 | C8A U49C | < 1e-05 s⁻¹ |  |  | < 1e-05 s⁻¹ |  | < 1e-05 s⁻¹ | 
21 | G43A C70U | 6.4e-05 ± 1.2e-05 s⁻¹ |  | 5.31e-05 ± 8.3e-06 s⁻¹ |  |  | 4.94e-05 ± 8.8e-06 s⁻¹ | 
22 | U57A G66U | 2.06e-05 ± 1.5e-06 s⁻¹ | < 1e-05 s⁻¹ |  |  |  |  | 
23 | G43C A53G C68U | 0.00152 ± 0.00074 s⁻¹ | 5.01e-05 ± 1.4e-05 s⁻¹ |  | 0.000435 ± 0.00011 s⁻¹ |  | 0.000879 ± 0.00022 s⁻¹ | 0.000102 ± 2.7e-05 s⁻¹
24 | G32A C61A | < 1e-05 s⁻¹ |  |  |  |  |  | 
25 | U30C C58A | 2.21e-05 ± 6e-06 s⁻¹ |  |  |  |  | 2.92e-05 ± 1.1e-05 s⁻¹ | 
26 | A12U A53C | 0.0145 ± 0.006 s⁻¹ | 0.000569 ± 7.4e-05 s⁻¹ | 0.0183 ± 0.0027 s⁻¹ | 0.0051 ± 0.0014 s⁻¹ |  | 0.00439 ± 0.0022 s⁻¹ | 
27 | C16U U31C | 0.00735 ± 0.00094 s⁻¹ | 0.000149 ± 2.1e-05 s⁻¹ | 0.00694 ± 0.0011 s⁻¹ | 0.00161 ± 0.00048 s⁻¹ | 1980 ± 350 µM | 0.0036 ± 0.00062 s⁻¹ | 0.000588 ± 0.00011 s⁻¹
28 | C34G G60U | < 1e-05 s⁻¹ | < 1e-05 s⁻¹ |  |  |  | < 1e-05 s⁻¹ | 
29 | U30C C71A | 9.39e-05 ± 4.7e-06 s⁻¹ |  | 8.36e-05 ± 1.3e-05 s⁻¹ | 3.17e-05 ± 8.4e-06 s⁻¹ | 1300 ± 180 µM | 6.1e-05 ± 9.3e-06 s⁻¹ | 
30 | A15C U57A | 7.96e-05 ± 6.3e-06 s⁻¹ |  | 6.22e-05 ± 8.8e-06 s⁻¹ |  | 2770 ± 750 µM | 3.94e-05 ± 1.2e-05 s⁻¹ | 
31 | U54C U57G | 0.000492 ± 1.5e-05 s⁻¹ |  | 6.43e-05 ± 1.1e-05 s⁻¹ |  |  |  | 
32 | G40C U46G | 0.000983 ± 6.7e-05 s⁻¹ |  | 0.000789 ± 0.00015 s⁻¹ | 0.00021 ± 4.6e-05 s⁻¹ | 2350 ± 280 µM | 0.000525 ± 0.00016 s⁻¹ | 7.1e-05 ± 3.3e-05 s⁻¹
33 | U45A G59U | 0.00047 ± 0.00017 s⁻¹ | < 1e-05 s⁻¹ | 0.000152 ± 2.4e-05 s⁻¹ |  |  | 5.25e-05 ± 1.3e-05 s⁻¹ | 
34 | C11U U45G U54A | 0.000206 ± 5.6e-05 s⁻¹ |  | 0.000152 ± 3.4e-05 s⁻¹ |  |  | 0.000119 ± 2.7e-05 s⁻¹ | 
